Experimental data published in doi:10.1101/2024.12.06.626481 (bioRxiv, 2024).

Target: murine IL-21 (mIL-21) (murine, UniProt Q9ES17 18-146)
Assay: BLI

- binding result: binds
B1: biotinylated murine IL-21 receptor (mIL-21R) (receptor)
chain: not shown
modifications: biotinylated (site not stated)
